Starred links: 1 amine or outer side, 2 acyl side, 3 side chain; linkers in the order of their positions; H or OH if unused. Non-standard residues stand in square brackets, D forms with d. Groups on a side chain read outwards from the residue. No end group written: not given here. *: point of attachment. C20 diacid = O=C(O)CCCCCCCCCCCCCCCCCCC(=O)*; C18 diacid = O=C(O)CCCCCCCCCCCCCCCCC(=O)*; γGlu = O=C(O)[C@H](CCC(=O)[*:2])N[*:1]; αMeF = C[C@](N)(Cc1ccccc1)C(=O)O; AEEA = NCCOCCOCC(=O)O; Aib = CC(C)(N)C(=O)O

Assay [1] concerns the target human GLP-1 receptor (hGLP-1R) (human, UniProt P43220 24-463). The experiment in a line: cell-based or functional assay.
Assay [2] has as its target human glucagon receptor (hGCGR) (human, UniProt P47871 26-477). The experiment in a line: cell-based or functional assay.

human glucagon receptor (hGCGR), sequence (P47871 26-477): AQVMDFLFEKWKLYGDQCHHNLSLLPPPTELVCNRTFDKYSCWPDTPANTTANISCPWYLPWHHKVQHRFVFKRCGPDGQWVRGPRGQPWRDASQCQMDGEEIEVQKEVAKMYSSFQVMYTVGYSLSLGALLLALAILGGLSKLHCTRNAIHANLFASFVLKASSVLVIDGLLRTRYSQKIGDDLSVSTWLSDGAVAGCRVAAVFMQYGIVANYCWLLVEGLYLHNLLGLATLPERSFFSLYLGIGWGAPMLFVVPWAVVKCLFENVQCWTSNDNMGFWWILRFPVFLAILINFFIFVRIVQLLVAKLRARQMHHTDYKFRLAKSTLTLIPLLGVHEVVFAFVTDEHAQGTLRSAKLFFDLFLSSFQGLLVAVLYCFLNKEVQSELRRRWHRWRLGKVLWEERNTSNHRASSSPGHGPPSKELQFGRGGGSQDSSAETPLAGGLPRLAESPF

B1: Peptide 420 (peptide)
peptide: H[Aib]QGTFTSDVSK[αMeF]LDKK([AEEA-AEEA-γGlu-C18 diacid])RAQDFVRWLL[Aib]E-NH2
modifications: N-terminus assumed
SMILES: CC(C)C[C@H](NC(=O)[C@H](Cc1c[nH]c2ccccc12)NC(=O)[C@H](CCCNC(=N)N)NC(=O)[C@@H](NC(=O)[C@H](Cc1ccccc1)NC(=O)[C@H](CC(=O)O)NC(=O)[C@H](CCC(N)=O)NC(=O)[C@H](C)NC(=O)[C@H](CCCNC(=N)N)NC(=O)[C@H](CCCCNC(=O)COCCOCCNC(=O)COCCOCCNC(=O)CC[C@H](NC(=O)CCCCCCCCCCCCCCCCC(=O)O)C(=O)O)NC(=O)[C@H](CCCCN)NC(=O)[C@H](CC(=O)O)NC(=O)[C@H](CC(C)C)NC(=O)[C@](C)(Cc1ccccc1)NC(=O)[C@H](CCCCN)NC(=O)[C@H](CO)NC(=O)[C@@H](NC(=O)[C@H](CC(=O)O)NC(=O)[C@H](CO)NC(=O)[C@@H](NC(=O)[C@H](Cc1ccccc1)NC(=O)[C@@H](NC(=O)CNC(=O)[C@H](CCC(N)=O)NC(=O)C(C)(C)NC(=O)[C@@H](N)Cc1c[nH]cn1)[C@@H](C)O)[C@@H](C)O)C(C)C)C(C)C)C(=O)N[C@@H](CC(C)C)C(=O)NC(C)(C)C(=O)N[C@@H](CCC(=O)O)C(N)=O
In the case of B1, the “hGLP-1R EC50 (pM)” value in assay [1] was 23.1 pM. The “hGluc-R EC50 (pM)” value in assay [2] is 36.9 pM.

B2: Peptide 418 (peptide)
peptide: H[Aib]QGTFTSDVSK[αMeF]LDTK([AEEA-AEEA-γGlu-γGlu-C20 diacid])RAQDFVAWLEA[Aib]G-OH
modifications: N-terminus assumed
SMILES: CC(C)C[C@H](NC(=O)[C@H](Cc1c[nH]c2ccccc12)NC(=O)[C@H](C)NC(=O)[C@@H](NC(=O)[C@H](Cc1ccccc1)NC(=O)[C@H](CC(=O)O)NC(=O)[C@H](CCC(N)=O)NC(=O)[C@H](C)NC(=O)[C@H](CCCNC(=N)N)NC(=O)[C@H](CCCCNC(=O)COCCOCCNC(=O)COCCOCCNC(=O)CC[C@H](NC(=O)CC[C@H](NC(=O)CCCCCCCCCCCCCCCCCCC(=O)O)C(=O)O)C(=O)O)NC(=O)[C@@H](NC(=O)[C@H](CC(=O)O)NC(=O)[C@H](CC(C)C)NC(=O)[C@](C)(Cc1ccccc1)NC(=O)[C@H](CCCCN)NC(=O)[C@H](CO)NC(=O)[C@@H](NC(=O)[C@H](CC(=O)O)NC(=O)[C@H](CO)NC(=O)[C@@H](NC(=O)[C@H](Cc1ccccc1)NC(=O)[C@@H](NC(=O)CNC(=O)[C@H](CCC(N)=O)NC(=O)C(C)(C)NC(=O)[C@@H](N)Cc1c[nH]cn1)[C@@H](C)O)[C@@H](C)O)C(C)C)[C@@H](C)O)C(C)C)C(=O)N[C@@H](CCC(=O)O)C(=O)N[C@@H](C)C(=O)NC(C)(C)C(=O)NCC(=O)O
Regarding B2, the “hGLP-1R EC50 (pM)” value in assay [1] was 88.1 pM. For the same molecule, the “hGluc-R EC50 (pM)” value in assay [2] came out at 222 pM.

B3: Peptide 417 (peptide)
peptide: H[Aib]QGTFTSDVSK[αMeF]LDTK([AEEA-AEEA-γGlu-γGlu-C18 diacid])RAQDFVAWLEA[Aib]G-OH
modifications: N-terminus assumed
SMILES: CC(C)C[C@H](NC(=O)[C@H](Cc1c[nH]c2ccccc12)NC(=O)[C@H](C)NC(=O)[C@@H](NC(=O)[C@H](Cc1ccccc1)NC(=O)[C@H](CC(=O)O)NC(=O)[C@H](CCC(N)=O)NC(=O)[C@H](C)NC(=O)[C@H](CCCNC(=N)N)NC(=O)[C@H](CCCCNC(=O)COCCOCCNC(=O)COCCOCCNC(=O)CC[C@H](NC(=O)CC[C@H](NC(=O)CCCCCCCCCCCCCCCCC(=O)O)C(=O)O)C(=O)O)NC(=O)[C@@H](NC(=O)[C@H](CC(=O)O)NC(=O)[C@H](CC(C)C)NC(=O)[C@](C)(Cc1ccccc1)NC(=O)[C@H](CCCCN)NC(=O)[C@H](CO)NC(=O)[C@@H](NC(=O)[C@H](CC(=O)O)NC(=O)[C@H](CO)NC(=O)[C@@H](NC(=O)[C@H](Cc1ccccc1)NC(=O)[C@@H](NC(=O)CNC(=O)[C@H](CCC(N)=O)NC(=O)C(C)(C)NC(=O)[C@@H](N)Cc1c[nH]cn1)[C@@H](C)O)[C@@H](C)O)C(C)C)[C@@H](C)O)C(C)C)C(=O)N[C@@H](CCC(=O)O)C(=O)N[C@@H](C)C(=O)NC(C)(C)C(=O)NCC(=O)O
In the case of B3, the “hGLP-1R EC50 (pM)” value in assay [1] amounted to 33.9 pM. Further, the “hGluc-R EC50 (pM)” value in assay [2] was found to be 16.4 pM.

B4: Peptide 419 (peptide)
peptide: H[Aib]QGTFTSDVSK[αMeF]LDTK([AEEA-AEEA-γGlu-C18 diacid])RAQDFVRWLE[Aib]E-OH
modifications: N-terminus assumed
SMILES: CC(C)C[C@H](NC(=O)[C@H](Cc1c[nH]c2ccccc12)NC(=O)[C@H](CCCNC(=N)N)NC(=O)[C@@H](NC(=O)[C@H](Cc1ccccc1)NC(=O)[C@H](CC(=O)O)NC(=O)[C@H](CCC(N)=O)NC(=O)[C@H](C)NC(=O)[C@H](CCCNC(=N)N)NC(=O)[C@H](CCCCNC(=O)COCCOCCNC(=O)COCCOCCNC(=O)CC[C@H](NC(=O)CCCCCCCCCCCCCCCCC(=O)O)C(=O)O)NC(=O)[C@@H](NC(=O)[C@H](CC(=O)O)NC(=O)[C@H](CC(C)C)NC(=O)[C@](C)(Cc1ccccc1)NC(=O)[C@H](CCCCN)NC(=O)[C@H](CO)NC(=O)[C@@H](NC(=O)[C@H](CC(=O)O)NC(=O)[C@H](CO)NC(=O)[C@@H](NC(=O)[C@H](Cc1ccccc1)NC(=O)[C@@H](NC(=O)CNC(=O)[C@H](CCC(N)=O)NC(=O)C(C)(C)NC(=O)[C@@H](N)Cc1c[nH]cn1)[C@@H](C)O)[C@@H](C)O)C(C)C)[C@@H](C)O)C(C)C)C(=O)N[C@@H](CCC(=O)O)C(=O)NC(C)(C)C(=O)N[C@@H](CCC(=O)O)C(=O)O
Turning to B4, in assay [1], the “hGLP-1R EC50 (pM)” value is 96.9 pM. Moreover, the “hGluc-R EC50 (pM)” value in assay [2] turned out to be 264 pM.

B5: Peptide 416 (peptide)
peptide: H[Aib]QGTFTSDVSK[αMeF]LESK([AEEA-AEEA-γGlu-C20 diacid])RAQDFVRWLEA[Aib]G-OH
modifications: N-terminus assumed
SMILES: CC(C)C[C@H](NC(=O)[C@H](Cc1c[nH]c2ccccc12)NC(=O)[C@H](CCCNC(=N)N)NC(=O)[C@@H](NC(=O)[C@H](Cc1ccccc1)NC(=O)[C@H](CC(=O)O)NC(=O)[C@H](CCC(N)=O)NC(=O)[C@H](C)NC(=O)[C@H](CCCNC(=N)N)NC(=O)[C@H](CCCCNC(=O)COCCOCCNC(=O)COCCOCCNC(=O)CC[C@H](NC(=O)CCCCCCCCCCCCCCCCCCC(=O)O)C(=O)O)NC(=O)[C@H](CO)NC(=O)[C@H](CCC(=O)O)NC(=O)[C@H](CC(C)C)NC(=O)[C@](C)(Cc1ccccc1)NC(=O)[C@H](CCCCN)NC(=O)[C@H](CO)NC(=O)[C@@H](NC(=O)[C@H](CC(=O)O)NC(=O)[C@H](CO)NC(=O)[C@@H](NC(=O)[C@H](Cc1ccccc1)NC(=O)[C@@H](NC(=O)CNC(=O)[C@H](CCC(N)=O)NC(=O)C(C)(C)NC(=O)[C@@H](N)Cc1c[nH]cn1)[C@@H](C)O)[C@@H](C)O)C(C)C)C(C)C)C(=O)N[C@@H](CCC(=O)O)C(=O)N[C@@H](C)C(=O)NC(C)(C)C(=O)NCC(=O)O
In the case of B5, in assay [1], the “hGLP-1R EC50 (pM)” value was found to be 67.7 pM. Also, the “hGluc-R EC50 (pM)” value in assay [2] is 581 pM.

B6: Peptide 415 (peptide)
peptide: H[Aib]QGTFTSDVSK[αMeF]LESK([AEEA-AEEA-γGlu-C18 diacid])RAQDFVRWLEA[Aib]G-OH
modifications: N-terminus assumed
SMILES: CC(C)C[C@H](NC(=O)[C@H](Cc1c[nH]c2ccccc12)NC(=O)[C@H](CCCNC(=N)N)NC(=O)[C@@H](NC(=O)[C@H](Cc1ccccc1)NC(=O)[C@H](CC(=O)O)NC(=O)[C@H](CCC(N)=O)NC(=O)[C@H](C)NC(=O)[C@H](CCCNC(=N)N)NC(=O)[C@H](CCCCNC(=O)COCCOCCNC(=O)COCCOCCNC(=O)CC[C@H](NC(=O)CCCCCCCCCCCCCCCCC(=O)O)C(=O)O)NC(=O)[C@H](CO)NC(=O)[C@H](CCC(=O)O)NC(=O)[C@H](CC(C)C)NC(=O)[C@](C)(Cc1ccccc1)NC(=O)[C@H](CCCCN)NC(=O)[C@H](CO)NC(=O)[C@@H](NC(=O)[C@H](CC(=O)O)NC(=O)[C@H](CO)NC(=O)[C@@H](NC(=O)[C@H](Cc1ccccc1)NC(=O)[C@@H](NC(=O)CNC(=O)[C@H](CCC(N)=O)NC(=O)C(C)(C)NC(=O)[C@@H](N)Cc1c[nH]cn1)[C@@H](C)O)[C@@H](C)O)C(C)C)C(C)C)C(=O)N[C@@H](CCC(=O)O)C(=O)N[C@@H](C)C(=O)NC(C)(C)C(=O)NCC(=O)O
In the case of B6, the “hGLP-1R EC50 (pM)” value in assay [1] was 14.7 pM. For the same molecule, the “hGluc-R EC50 (pM)” value in assay [2] stood at 301 pM.

B7: Peptide 421 (peptide)
peptide: H[Aib]QGTFTSDVSK[αMeF]LDRK([AEEA-AEEA-γGlu-C18 diacid])RAQDFVRWLL[Aib]TE-OH
modifications: N-terminus assumed
SMILES: CC(C)C[C@H](NC(=O)[C@H](Cc1c[nH]c2ccccc12)NC(=O)[C@H](CCCNC(=N)N)NC(=O)[C@@H](NC(=O)[C@H](Cc1ccccc1)NC(=O)[C@H](CC(=O)O)NC(=O)[C@H](CCC(N)=O)NC(=O)[C@H](C)NC(=O)[C@H](CCCNC(=N)N)NC(=O)[C@H](CCCCNC(=O)COCCOCCNC(=O)COCCOCCNC(=O)CC[C@H](NC(=O)CCCCCCCCCCCCCCCCC(=O)O)C(=O)O)NC(=O)[C@H](CCCNC(=N)N)NC(=O)[C@H](CC(=O)O)NC(=O)[C@H](CC(C)C)NC(=O)[C@](C)(Cc1ccccc1)NC(=O)[C@H](CCCCN)NC(=O)[C@H](CO)NC(=O)[C@@H](NC(=O)[C@H](CC(=O)O)NC(=O)[C@H](CO)NC(=O)[C@@H](NC(=O)[C@H](Cc1ccccc1)NC(=O)[C@@H](NC(=O)CNC(=O)[C@H](CCC(N)=O)NC(=O)C(C)(C)NC(=O)[C@@H](N)Cc1c[nH]cn1)[C@@H](C)O)[C@@H](C)O)C(C)C)C(C)C)C(=O)N[C@@H](CC(C)C)C(=O)NC(C)(C)C(=O)N[C@H](C(=O)N[C@@H](CCC(=O)O)C(=O)O)[C@@H](C)O
Consider B7, for which the “hGLP-1R EC50 (pM)” value in assay [1] was found to be 87.3 pM. In addition, the “hGluc-R EC50 (pM)” value in assay [2] was found to be 180 pM.

The values are drawn from patent US20230357348A1 (AstraZeneca / MedImmune, published 2023).
